Source: patent publication US20240026019A1 (Innovent, published 2024)

T1: hTNFR2 protein (coated on the microplate in the blocking ELISA) (human, UniProt P20333 23-257)
T1 construct: The construct coated in the ELISA is not described (it may or may not be the immunogen, Sino biological 10417-H03H)
T1 sequence (looked up): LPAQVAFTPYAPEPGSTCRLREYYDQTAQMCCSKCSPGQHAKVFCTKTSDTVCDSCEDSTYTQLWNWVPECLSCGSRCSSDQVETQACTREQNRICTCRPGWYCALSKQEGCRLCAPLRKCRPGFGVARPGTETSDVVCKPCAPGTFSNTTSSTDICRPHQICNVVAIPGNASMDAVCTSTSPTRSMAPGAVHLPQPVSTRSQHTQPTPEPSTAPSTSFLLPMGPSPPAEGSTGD

T2: human TNFR2 overexpressed on CHO-S cells (CHOS-hTNFR2) (human, UniProt P20333 23-461)
T2 construct: also called hTNFR2 CHO-S; human TNFR2 molecule overexpressed on CHO-S cells
T2 sequence: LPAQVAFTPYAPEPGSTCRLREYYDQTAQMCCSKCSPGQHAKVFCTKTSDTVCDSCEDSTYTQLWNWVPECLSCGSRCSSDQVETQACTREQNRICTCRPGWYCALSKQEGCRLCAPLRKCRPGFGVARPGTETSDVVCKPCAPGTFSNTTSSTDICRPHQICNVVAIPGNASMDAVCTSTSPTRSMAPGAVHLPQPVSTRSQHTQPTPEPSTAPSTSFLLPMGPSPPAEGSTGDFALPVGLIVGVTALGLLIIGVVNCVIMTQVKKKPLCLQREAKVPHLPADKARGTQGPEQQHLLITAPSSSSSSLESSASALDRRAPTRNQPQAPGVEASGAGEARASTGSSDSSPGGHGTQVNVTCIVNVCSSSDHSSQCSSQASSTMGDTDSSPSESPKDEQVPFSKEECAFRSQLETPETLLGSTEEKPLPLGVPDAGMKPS

T3: cynomolgus monkey TNFR2 overexpressed on CHO-S cells (CHOS-cTNFR2) (cynomolgus monkey, UniProt P20333 23-461 (human entry))
T3 construct: also called cTNFR2 CHO-S
T3 chain: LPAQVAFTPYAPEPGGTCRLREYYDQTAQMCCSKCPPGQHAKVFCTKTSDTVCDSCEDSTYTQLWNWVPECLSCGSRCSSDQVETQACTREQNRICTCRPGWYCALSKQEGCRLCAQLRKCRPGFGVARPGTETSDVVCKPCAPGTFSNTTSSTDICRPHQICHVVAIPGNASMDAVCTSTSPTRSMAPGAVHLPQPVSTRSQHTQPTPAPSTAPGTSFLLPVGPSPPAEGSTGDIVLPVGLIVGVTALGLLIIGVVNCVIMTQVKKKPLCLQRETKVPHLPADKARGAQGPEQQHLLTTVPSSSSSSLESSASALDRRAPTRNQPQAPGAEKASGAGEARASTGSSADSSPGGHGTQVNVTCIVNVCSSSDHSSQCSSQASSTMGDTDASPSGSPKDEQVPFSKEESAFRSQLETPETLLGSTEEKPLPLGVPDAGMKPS

B1: positive control antibody OPI (humanized antibody SBT-002e in WO 2017083525) (antibody, V domains shown)
VH: QVTLKESGPALVKPTQTLTLTCTFSGFSLSTSGMGVGWIRQPPGKALEWLAHIWWDDDKFYNPSLKSRLTISKDTSKNQVVLTMTNMDPVDTATYYCARLTGTRYFDYWGQGTTVTVSS
VL: DVQMTQSPSSLSASVGDRVTITCKASQDINKFIAWYQQKPGKAPKLLIHYTSTLQPGIPSRFSGSGSGRDYTFTISSLQPEDIATYYCLQYGNLWTFGGGTKVEIK
notes: also called Benchmark OPI
B2: chimeric antibody 3C4 (antibody, human IgG1, kappa, V domains shown)
VH: QVQLQQSGPELVKPGASVTISCKASDYSFTNYYIHWVKQRPGQGLEWIGWIYPGNVITKYHEKFKGKAILTADTSSTTAYMQLNSLTSEDSAVYFCARSRATGYFDYWGQGTTLTVSS
VL: DIQMTQTTSSLSASLGDRVTISCRASQDIRNYLNWFQQKPDGTIKLLIYYTSRLHSGVPSRFSGSGSGTDYSLTISNLEQEDMATYFCQQFNTLPWTFGGGTKLEIKR
B3: chimeric antibody 69B1 (antibody, human IgG1, kappa, V domains shown)
VH: QIQLVQSGPELKKPGETVKISCKASGYTFTDYSMNWVKQAPGKGLKWMGWLNTETGEPIYADDFKGRFVFSLETSASTAYLEINNLNDEDTATYFCAREAIYYGTSYVLDYWGQGTSVTVSS
VL: DIVLTQSPASLAVSLGQRATISCRASESVEYYGTNFMQWYQQKPGQPPKLLIYSASNVESGVPARFSGSGSGTDFSLNIHPVEEDDIAVYFCQQSRKDPSTFGEGTNLEIKR

What was measured:
[1] = target: T1, hTNFR2 protein (coated on the …); assay: blocking ELISA: hTNFR2 coated on the plate, binding of biotinylated TNFα blocked by the antibody; unit taken from the axis Conc log(nM) [A]
Description: The hTNFR2 protein was resuspended and dissolved to a concentration of 2 μg/mL with PBS, and a microplate was coated with the protein and incubated overnight. The plate was blocked with 5% BSA for 1 h, and a biotinylated antigen (Recombinant Biotinylated TNFα protein (ACRO)) was diluted to 2 μg/mL and added to the plate at 10 μL/well. The antibodies prepared as described above (3C4, 69B1, and 72G8) were each diluted in a gradient starting from the maximum concentration of 300 nM for a total of 8 or 12 dilution gradients. The diluted antibodies were added at 100 μL/well and incubated in PBS on ice for 30 min. The antigen-antibody mixture was incubated in a microplate for 90 min and washed three times with PBS, and the supernatant was discarded. 100 μL of Avidin-HRP (Invitrogen) diluted at a 1:5000 ratio was added to each well, incubated at room temperature for 30 min, and washed six times with PBS. A TMB chromogenic solution (solarbio) was added to the plate at 100 μL/well for color development for 1 min, and the reaction was stopped by adding a stop buffer (solarbio) at 100 μL/well. The plate was read on a microplate reader at OD₄₅₀ and OD₆₂₀.
In a similar manner to that in Example 7, the ability of the humanized antibodies hz3C4.7, hz69b1.5, hz69b1.6, hz69b1.11, and hz69b1.20, and the control antibody OPI to block the binding of human TNFα to hTNFR2 was assayed by ELISA.

[2] = target: T2, human TNFR2 overexpressed on CHO-S …; assay: flow cytometry on CHO-S cells overexpressing human TNFR2 (chimeric antibodies), MFI-FL2-A; unit taken from the axis Conc log(nM)
Description: (§1) In the study, the binding of the chimeric antibodies of the present invention, after being diluted in a gradient, to a stable CHO-S cell strain overexpressing human TNFR2 on the surface was assayed by using a flow cytometer. cDNAs encoding human TNFR2 (SEQ ID NO: 60) and cynomolgus monkey TNFR2 (SEQ ID NO: 61) were cloned into pCH01.0 vectors (Invitrogen), which were transfected into CHO-S cells (Invitrogen) to produce CHO-S cells overexpressing human TNFR2 (CHOS-hTNFR2) and CHO-S cells overexpressing cynomolgus monkey TNFR2 (CHOS-cTNFR2).
(§2) CHOS-hTNFR2 cells or CHOS-cTNFR2 cells were counted and diluted to 2×10⁶ cells/mL, and added to a U-bottom 96-well plate at 100 μL/well. The mixture was centrifuged at 300 g for 5 min, and the cell medium was removed. The dilutions of the samples (the chimeric antibodies 3C4, 69B1, and 72G8 and the positive control antibody OPI) (the antibodies were subjected to a three-fold serial dilution in PBS from the maximum antibody concentration of 300 nM) were added to the U-plate, and the cells were resuspended at 100 μL/well and left to stand on ice for 30 min. The suspension was centrifuged at 400 g for 5 min, and the supernatant was removed. The cells were washed twice with PBS. The mixture was centrifuged at 300 g for 5 min, and PBS was removed. […]

[3] = target: T3, cynomolgus monkey TNFR2 overexpressed …; assay: flow cytometry on CHO-S cells overexpressing cynomolgus monkey TNFR2 (chimeric antibodies), MFI-FL2-A; unit taken from the axis Conc log(nM)
Description: as §1, §2

| Binder | IC50 [1] | EC50 [2] | EC50 [3] |
| --- | --- | --- | --- |
| B1 | 38.2 nM | – | – |
| B2 | 24.2 nM | 2 nM | 0.355 nM |
| B3 | – | 3.14 nM | 0.324 nM |
